Measured values taken from patent US20240376186A1 (AARHUS UNIVERSITET, published 2024).
Each block holds one binder with its values, some of them ahead of it.

Legend:
C3b [1] = target: T1, C3b (human, UniProt P01024 23-667; P01024 749-1663); test: bio-layer interferometry, summary of affinities (FIG. 10)
T1 construct: also called human C3b
Description: FIGS. 9A-9B Bio-layer interferometry-based analysis of EWEnH. (FIG. 9A) Anti-penta his biosensors were coated with EWEnH. The sensors were transferred into a dilution series from 3.125-100 nM C3b. (FIG. 9B) Anti-penta his biosensors were coated with EWEnH. The iC3b concentration tested ranged from 6.25-100 nM.
(§1) Bio-layer interferometry experiments. All experiments were performed in 20 mM HEPES pH 7.5, […]. All experiments were performed on an Octet RED96 (Fortébio Pall Corporation) instrument operating at 30° C., shaking at 1000 rpm. EWE-hC3Nb1, EWEμH or EWEnH was immobilized on anti-penta his biosensor (Fortebio Pall Corporation) and the sensors were transferred into dilution series of C3b or iC3b. Measurements of 0 nM analyte were subtracted from sensorgrams for normalization and the sensorgrams were fitted to a 1:1 binding model using the GraphPad Prism (version 6.01) software.

C3b [2] = target: T1, C3b; test: bio-layer interferometry, binder on anti-penta his biosensors; reference EWE-hC3Nb1 on C3b
Description: FIGS. 8A-8B Bio-layer interferometry-based analysis of EWEμH. (FIG. 8A) Anti-penta his biosensors were coated with EWEμH. The sensors were transferred into a dilution series from 1.5625-50 nM C3b. (FIG. 8B) Anti-penta his biosensors were coated with EWEμH and transferred into an iC3b dilution series ranging from 3.125-50 nM.
as §1

native C3 = target: T2, native C3 (human, UniProt P01024 23-667; P01024 668-1663); test: size exclusion chromatography
T2 construct: also called Complement component 3
Description: (§2) Size exclusion chromatography assay. 200 μg C3b was mixed with a 2-fold molar excess of EWE-hC3Nb1 or left untreated. The mix was diluted to 400 μL in 20 mM HEPES pH 7.5, 150 mM NaCl and applied to a Superdex 200 increase (GE Healthcare) column equilibrated in dilution buffer. SEC assaying binding of EWE-hC3Nb1 to native C3 was performed similarly. Peak fraction were analyzed by SDS PAGE.

C3b [3] = target: T1, C3b; test: size exclusion chromatography, 2-fold molar excess of EWE-hC3Nb1; SDS-PAGE of peak fractions confirmed the complex
Description: as §2

T1 sequence (P01024 23-667 limits assumed, chain 1 of 2): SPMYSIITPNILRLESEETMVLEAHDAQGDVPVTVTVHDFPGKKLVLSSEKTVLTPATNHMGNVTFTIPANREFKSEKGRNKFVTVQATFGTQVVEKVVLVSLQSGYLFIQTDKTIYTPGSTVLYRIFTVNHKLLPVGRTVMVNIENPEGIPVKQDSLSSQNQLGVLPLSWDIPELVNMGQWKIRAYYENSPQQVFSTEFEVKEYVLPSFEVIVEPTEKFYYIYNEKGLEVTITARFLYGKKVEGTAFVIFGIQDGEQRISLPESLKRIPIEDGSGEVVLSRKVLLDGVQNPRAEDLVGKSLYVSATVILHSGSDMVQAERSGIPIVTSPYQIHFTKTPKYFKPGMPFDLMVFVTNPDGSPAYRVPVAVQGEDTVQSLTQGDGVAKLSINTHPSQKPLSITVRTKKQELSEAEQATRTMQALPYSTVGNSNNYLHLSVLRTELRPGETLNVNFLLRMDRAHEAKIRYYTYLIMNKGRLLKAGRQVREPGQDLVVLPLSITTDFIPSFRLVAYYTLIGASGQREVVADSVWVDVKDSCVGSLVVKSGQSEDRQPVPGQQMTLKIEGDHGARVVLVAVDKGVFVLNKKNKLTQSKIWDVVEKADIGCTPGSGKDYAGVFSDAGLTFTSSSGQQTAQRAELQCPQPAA
T1 sequence (P01024 749-1663 limits assumed, chain 2 of 2): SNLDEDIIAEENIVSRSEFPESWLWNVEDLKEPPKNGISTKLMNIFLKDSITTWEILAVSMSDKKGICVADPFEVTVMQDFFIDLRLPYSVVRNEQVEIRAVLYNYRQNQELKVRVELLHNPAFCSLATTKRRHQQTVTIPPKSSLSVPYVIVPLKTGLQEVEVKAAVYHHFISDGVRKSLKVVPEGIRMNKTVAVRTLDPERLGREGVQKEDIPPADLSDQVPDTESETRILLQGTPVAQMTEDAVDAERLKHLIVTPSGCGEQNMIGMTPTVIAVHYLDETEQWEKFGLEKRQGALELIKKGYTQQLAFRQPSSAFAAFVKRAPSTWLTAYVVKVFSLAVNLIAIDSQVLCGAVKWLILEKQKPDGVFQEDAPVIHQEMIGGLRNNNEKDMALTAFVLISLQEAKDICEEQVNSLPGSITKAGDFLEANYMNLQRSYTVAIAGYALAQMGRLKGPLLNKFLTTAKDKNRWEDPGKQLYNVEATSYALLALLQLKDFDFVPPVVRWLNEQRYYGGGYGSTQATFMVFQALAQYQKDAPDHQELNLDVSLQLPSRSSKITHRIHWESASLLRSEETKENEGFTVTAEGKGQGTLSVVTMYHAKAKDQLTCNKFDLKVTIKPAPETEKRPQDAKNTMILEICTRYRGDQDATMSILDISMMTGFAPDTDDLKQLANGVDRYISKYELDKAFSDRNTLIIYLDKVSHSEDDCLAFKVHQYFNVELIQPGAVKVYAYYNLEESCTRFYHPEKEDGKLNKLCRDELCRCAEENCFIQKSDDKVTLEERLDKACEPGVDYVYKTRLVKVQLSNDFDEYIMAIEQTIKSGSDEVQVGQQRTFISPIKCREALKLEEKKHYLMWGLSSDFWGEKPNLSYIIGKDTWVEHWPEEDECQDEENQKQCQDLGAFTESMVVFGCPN
T2 sequence (P01024 23-667, chain 1 of 2): as the sequence (P01024 23-667 limits assumed, chain 1 of 2) above
T2 sequence (P01024 668-1663, chain 2 of 2): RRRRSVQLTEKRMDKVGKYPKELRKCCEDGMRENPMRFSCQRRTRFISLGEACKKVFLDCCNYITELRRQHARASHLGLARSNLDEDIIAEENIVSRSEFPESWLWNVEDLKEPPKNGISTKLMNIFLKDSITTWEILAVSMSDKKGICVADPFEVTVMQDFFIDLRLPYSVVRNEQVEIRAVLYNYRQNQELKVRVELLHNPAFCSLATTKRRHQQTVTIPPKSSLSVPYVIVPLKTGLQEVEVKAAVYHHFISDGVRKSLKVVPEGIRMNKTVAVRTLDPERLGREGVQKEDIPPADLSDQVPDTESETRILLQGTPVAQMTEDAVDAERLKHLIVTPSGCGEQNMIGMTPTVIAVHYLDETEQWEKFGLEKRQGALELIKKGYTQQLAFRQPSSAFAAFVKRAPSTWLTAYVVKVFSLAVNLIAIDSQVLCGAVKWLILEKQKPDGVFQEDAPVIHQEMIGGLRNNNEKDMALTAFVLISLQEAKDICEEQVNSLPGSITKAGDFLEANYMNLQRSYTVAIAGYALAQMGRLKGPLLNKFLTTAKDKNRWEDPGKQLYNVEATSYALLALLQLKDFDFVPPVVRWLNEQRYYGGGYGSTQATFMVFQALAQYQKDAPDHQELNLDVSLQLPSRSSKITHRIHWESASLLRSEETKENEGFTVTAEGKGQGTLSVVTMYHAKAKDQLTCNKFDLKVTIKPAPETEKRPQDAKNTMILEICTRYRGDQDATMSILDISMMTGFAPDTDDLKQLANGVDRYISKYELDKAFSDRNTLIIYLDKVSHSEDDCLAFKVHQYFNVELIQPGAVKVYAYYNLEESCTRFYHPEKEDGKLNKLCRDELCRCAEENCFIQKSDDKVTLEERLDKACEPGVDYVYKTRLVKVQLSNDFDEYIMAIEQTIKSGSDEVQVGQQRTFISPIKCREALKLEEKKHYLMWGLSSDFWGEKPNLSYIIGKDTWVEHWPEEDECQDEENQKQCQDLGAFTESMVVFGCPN

binding result (C3b [1]): binds
B1: EWEnH (other)
chain: EWEQVQLVETGGGLVQAGGSLRLSCAASGSIFSINAMGWFRQAPGKEREFVATINRSGGRTYYADSVKGRFTISRDNGKNMVYLQMHSLKPEDTAIYYCAAGTGWSPQTDNEYNYWGQGTQVTVSSGGGGSGGGGSGGGGSGGGGSRPCGHPGDTPFGTFTLTGGNVFEYGVKAVYTCNEGYQLLGEINYRECDTDGWTNDIPICEVVKCLPVTAPENGKIVSSAMEPDREYHFGQAVRFVCNSGYKIEGDEEMHCSDDGFWSKEKPKCVEISCKSPDVINGSPISQKIIYKENERFQYKCNMGYEYSERGDAVCTESGWRPLPSCEEA
notes: expressed in HEK293 cells; also called fusion protein EWEnH; not shown: His tag implied by HisTrap purification and capture on anti-penta his biosensors

fold stronger binding than EWE-hC3Nb1 (C3b [2]): ~10 fold
B2: EWEµH (other)
chain: EWEQVQLVETGGGLVQAGGSLRLSCAASGSIFSINAMGWFRQAPGKEREFVATINRSGGRTYYADSVKGRFTISRDNGKNMVYLQMHSLKPEDTAIYYCAAGTGWSPQTDNEYNYWGQGTQVTVSSGGGGSGGGGSGGGGSGGGGSRPCGHPGDTPFGTFTLTGGNVFEYGVKAVYTCNEGYQLLGEINYRECDTDGWTNDIPICEVVKCLPVTAPENGKIVSSAMEPDREYHFGQAVRFVCNSGYKIEGDEEMHCSDDGFWSKEKPKCVEISCKSPDVINGSPISQKIIYKENERFQYKCNMGYEYSERGDAVCTESGWRPLPSCEEAGGGGGGGGGGGGGKCGPPPPIDNGDITSFPLSVYAPASSVEYQCQNLYQLEGNKRITCRNGQWSEPPKCLHPCVISREIMENYNIALRWTAKQKLYSRTGESVEFVCKRGYRLSSRSHTLRTTCWDGKLEYPTCAKRENLYFQG
notes: expressed in HEK293 cells; also called EWEuH; fusion EWEµH; not shown: His tag implied by HisTrap purification and capture on anti-penta his biosensors

binding result (C3b [3]): binds
B3: EWE-hC3Nb1 (VHH)
VHH: QVQLVETGGGLVQAGGSLRLSCAASGSIFSINAMGWFRQAPGKEREFVATINRSGGRTYYADSVKGRFTISRDNGKNMVYLQMHSLKPEDTAIYYCAAGTGWSPQTDNEYNYWGQGTQVTVSS
notes: hC3Nb1 with an N-terminal Glu-Trp-Glu motif; expressed in E. coli; also called single domain antibody EWE-hC3Nb1; EWE-hC3Nb1 nanobody; not shown: His tag implied by HisTrap purification and capture on anti-penta his biosensors
binding result (native C3): no binding (tested: 2-fold molar excess of EWE-hC3Nb1)
